Source: US12365732
pEC50, pIC50, pKd: −log10 of the molar value.

Columns and labels:
[1] = target: hu-CD96 isoform 2 on CHO cells (human) (UniProt P40200); assay: FACS, Ab 2 nM
[2] = target: hu-CD96 isoform 2 on CHO cells (human) (UniProt P40200); assay: FACS, Ab 10 nM
[3] = target: hu-CD96 isoform 2 on CHO cells (human) (UniProt P40200); assay: FACS, Ab 50 nM
[4] = target: cynomolgus monkey CD96 on cynomolgus monkey PBMCs (cynomolgus monkey); assay: FACS, Ab 16 nM
[5] = target: human CD96 on primary human immune cells (PBMCs, NK cells, CD4+ T cells) (human) (UniProt P40200); assay: FACS, Ab 16 nM
[6] = target: cynomolgus monkey CD96 on cynomolgus monkey PBMCs (cynomolgus monkey); assay: FACS, Ab 80 nM
[7] = target: human CD96 on primary human immune cells (PBMCs, NK cells, CD4+ T cells) (human) (UniProt P40200); assay: FACS, Ab 80 nM
[8] = target: hu-CD96 isoform 2 on CHO cells (human) (UniProt P40200); assay: FACS, Ab 0.4 nM
[9] = target: cynomolgus monkey CD96 on cynomolgus monkey PBMCs (cynomolgus monkey); assay: FACS, Ab 3.2 nM
[10] = target: human CD96 on primary human immune cells (PBMCs, NK cells, CD4+ T cells) (human) (UniProt P40200); assay: FACS, Ab 3.2 nM
[11] = target: hu-CD96 isoform 2 on CHO cells (human) (UniProt P40200); assay: FACS, Ab 0.08 nM
[12] = target: cynomolgus monkey CD96 on cynomolgus monkey PBMCs (cynomolgus monkey); assay: FACS, Ab 0.64 nM
[13] = target: human CD96 on primary human immune cells (PBMCs, NK cells, CD4+ T cells) (human) (UniProt P40200); assay: FACS, Ab 0.64 nM
[14] = target: hu-CD96 isoform 2 on CHO cells (human) (UniProt P40200); assay: FACS, Ab 0.016 nM
[15] = target: cynomolgus monkey CD96 on cynomolgus monkey PBMCs (cynomolgus monkey); assay: FACS, Ab 0.128 nM
[16] = target: human CD96 on primary human immune cells (PBMCs, NK cells, CD4+ T cells) (human) (UniProt P40200); assay: FACS, Ab 0.128 nM
[17] = target: hu-CD96 isoform 2 on CHO cells (human) (UniProt P40200); assay: FACS, Ab 0.0032 nM
[18] = target: cynomolgus monkey CD96 on cynomolgus monkey PBMCs (cynomolgus monkey); assay: FACS, Ab 0.0256 nM
[19] = target: human CD96 on primary human immune cells (PBMCs, NK cells, CD4+ T cells) (human) (UniProt P40200); assay: FACS, Ab 0.0256 nM
[20] = target: cynomolgus monkey CD96 on cynomolgus monkey PBMCs (cynomolgus monkey); assay: FACS, Ab 0.00512 nM
[21] = target: human CD96 on primary human immune cells (PBMCs, NK cells, CD4+ T cells) (human) (UniProt P40200); assay: FACS, Ab 0.00512 nM
[22] = target: cynomolgus monkey CD96 on cynomolgus monkey PBMCs (cynomolgus monkey); assay: FACS, % positive curve
[23] = target: hu-CD96 isoform 2 on CHO cells (human) (UniProt P40200); assay: FACS, % positive curve
[24] = target: human CD96 on primary human immune cells (PBMCs, NK cells, CD4+ T cells) (human) (UniProt P40200); assay: FACS, % positive curve
[25] = target: human CD96 on primary human immune cells (PBMCs, NK cells, CD4+ T cells) (human) (UniProt P40200); assay: cell-based or functional assay
hu-CD96D1 D3-hFc (human) = assay: ELISA, coated CD96D1D3-hFc
[26] = target: hu-CD96 isoform 2 on CHO cells (human) (UniProt P40200); assay: FACS, CD155-Fc-FLAG 10 nM, Ab 4 nM
[27] = target: hu-CD96 (soluble, isoform 2 extracellular domain) (human) (UniProt P40200); assay: SPR 25C, IgG captured, CD96 analyte
[28] = target: hu-CD96 isoform 2 on CHO cells (human) (UniProt P40200); assay: FACS, CD155-Fc-FLAG 10 nM, Ab 20 nM
[29] = target: hu-CD96 isoform 2 on CHO cells (human) (UniProt P40200); assay: FACS, CD155-Fc-FLAG 10 nM, Ab 0.8 nM
[30] = target: hu-CD96 isoform 2 on CHO cells (human) (UniProt P40200); assay: FACS, CD155-Fc-FLAG 10 nM, Ab 100 nM
[31] = target: hu-CD96 isoform 2 on CHO cells (human) (UniProt P40200); assay: FACS, CD155-Fc-FLAG 10 nM, Ab 0.16 nM
[32] = target: hu-CD96 isoform 2 on CHO cells (human) (UniProt P40200); assay: FACS, CD155-Fc-FLAG 10 nM, Ab 0.032 nM
[33] = target: hu-CD96 isoform 2 on CHO cells (human) (UniProt P40200); assay: FACS, CD155-Fc-FLAG 10 nM, Ab 0.0064 nM
hu-CD96 Fc (human) = assay: SPR 37C, biotin-CD96-Fc captured, IgG analyte
[34] = target: hu-CD96 isoform 2 on CHO cells (human) (UniProt P40200); assay: FACS, blocks 10 nM CD155-Fc-FLAG binding to CD96-CHO
[35] = target: recombinant hu-CD96 (M1-M503-polyHis) (human) (UniProt P40200); assay: ELISA, blocks hu-CD96-his binding to coated CD155-hFc
[36] = target: hu-CD96 isoform 1 on HEK293T cells (human) (UniProt P40200); assay: FACS, Ab 2 nM
[37] = target: hu-CD96 isoform 1 on HEK293T cells (human) (UniProt P40200); assay: FACS, Ab 10 nM
[38] = target: hu-CD96 isoform 1 on HEK293T cells (human) (UniProt P40200); assay: FACS, Ab 50 nM
[39] = target: hu-CD96 isoform 1 on HEK293T cells (human) (UniProt P40200); assay: FACS, Ab 0.4 nM
[40] = target: hu-CD96 isoform 1 on HEK293T cells (human) (UniProt P40200); assay: FACS, Ab 0.08 nM
[41] = target: hu-CD96 isoform 1 on HEK293T cells (human) (UniProt P40200); assay: FACS, Ab 0.016 nM
[42] = target: cy-CD226 His tag (cynomolgus monkey); assay: SPR 25C, biotin-CD226-His captured, IgG analyte
hu-CD226 His tag (human) = hu-CD226 His tag (human) (UniProt Q15762); assay: SPR 25C, biotin-CD226-His captured, IgG analyte
hu-CD226 His tag (human), sequence (Q15762 19-247 limits assumed): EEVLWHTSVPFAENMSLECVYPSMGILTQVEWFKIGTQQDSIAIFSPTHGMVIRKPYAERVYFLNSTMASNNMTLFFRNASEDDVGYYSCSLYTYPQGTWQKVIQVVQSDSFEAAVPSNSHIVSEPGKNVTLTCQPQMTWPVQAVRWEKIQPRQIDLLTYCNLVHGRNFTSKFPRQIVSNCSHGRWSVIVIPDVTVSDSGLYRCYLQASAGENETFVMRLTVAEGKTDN

hu-CD96 Fc (human), sequence (chain, as listed by the source): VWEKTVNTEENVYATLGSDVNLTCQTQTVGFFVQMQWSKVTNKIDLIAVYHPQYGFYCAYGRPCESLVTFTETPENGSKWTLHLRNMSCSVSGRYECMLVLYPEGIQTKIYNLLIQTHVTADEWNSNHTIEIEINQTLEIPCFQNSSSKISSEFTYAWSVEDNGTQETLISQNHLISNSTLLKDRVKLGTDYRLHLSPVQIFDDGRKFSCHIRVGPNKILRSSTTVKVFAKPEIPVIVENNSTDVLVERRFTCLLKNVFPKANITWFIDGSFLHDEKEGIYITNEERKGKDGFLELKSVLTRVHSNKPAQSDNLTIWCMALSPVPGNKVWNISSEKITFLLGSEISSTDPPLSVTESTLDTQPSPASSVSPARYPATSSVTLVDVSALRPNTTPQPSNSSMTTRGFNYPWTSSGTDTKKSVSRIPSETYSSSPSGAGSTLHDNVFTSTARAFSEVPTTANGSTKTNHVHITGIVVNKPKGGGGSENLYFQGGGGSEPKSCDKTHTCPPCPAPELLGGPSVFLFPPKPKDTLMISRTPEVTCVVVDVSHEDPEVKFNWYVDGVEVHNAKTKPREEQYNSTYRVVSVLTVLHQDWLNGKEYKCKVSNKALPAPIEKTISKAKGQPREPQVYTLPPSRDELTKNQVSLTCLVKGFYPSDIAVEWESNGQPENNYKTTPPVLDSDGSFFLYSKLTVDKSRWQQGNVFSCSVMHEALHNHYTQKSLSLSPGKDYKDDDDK
hu-CD96D1 D3-hFc (human), sequence (chain, as listed by the source limits assumed): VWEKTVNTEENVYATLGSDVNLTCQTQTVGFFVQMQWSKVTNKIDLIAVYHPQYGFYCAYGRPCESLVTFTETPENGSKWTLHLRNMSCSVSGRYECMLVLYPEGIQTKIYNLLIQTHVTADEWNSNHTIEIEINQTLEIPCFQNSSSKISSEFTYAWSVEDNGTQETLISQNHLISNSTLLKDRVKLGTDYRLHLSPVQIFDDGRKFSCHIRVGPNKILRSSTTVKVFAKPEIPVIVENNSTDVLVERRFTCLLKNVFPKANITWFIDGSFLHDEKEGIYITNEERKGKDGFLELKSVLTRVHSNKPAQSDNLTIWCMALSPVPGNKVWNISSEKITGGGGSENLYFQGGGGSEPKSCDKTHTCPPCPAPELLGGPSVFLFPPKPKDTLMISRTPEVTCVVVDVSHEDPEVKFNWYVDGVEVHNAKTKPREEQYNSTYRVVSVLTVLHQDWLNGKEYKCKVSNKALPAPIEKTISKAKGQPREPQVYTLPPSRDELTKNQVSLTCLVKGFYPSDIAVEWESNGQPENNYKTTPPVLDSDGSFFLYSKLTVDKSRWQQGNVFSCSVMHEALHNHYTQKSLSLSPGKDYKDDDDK
cy-CD226 His tag (cynomolgus monkey), sequence (chain, as listed by the source): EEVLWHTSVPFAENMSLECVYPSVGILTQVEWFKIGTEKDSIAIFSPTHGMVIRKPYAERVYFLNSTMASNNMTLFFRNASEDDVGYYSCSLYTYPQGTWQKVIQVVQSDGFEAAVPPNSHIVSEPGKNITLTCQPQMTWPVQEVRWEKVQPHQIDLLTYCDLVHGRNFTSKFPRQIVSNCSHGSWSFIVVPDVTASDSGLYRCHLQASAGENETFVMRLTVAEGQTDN

NK92.39 (antibody)
% positive [1]: 15.8%
% positive [2]: 21.5%
% positive [3]: 22%
% positive [4]: 5.4%
% positive [5]: 94.3%
% positive [6]: 4.9%
% positive [7]: 91.9%
% positive [8]: 4%
% positive [9]: 5.2%
% positive [10]: 76.7%
% positive [11]: 0.2%
% positive [12]: 4.7%
% positive [13]: 27.4%
% positive [14]: 0.1%
% positive [15]: 5.2%
% positive [16]: 2%
% positive [17]: 0.1%
% positive [18]: 5%
% positive [19]: 0.9%
% positive [20]: 4.5%
% positive [21]: 1.3%
pEC50 [22]: 8.96
pEC50 [23]: 8.94
pEC50 [24]: 8.91
Human NK cell IFNγ secretion (fold over background), Ab 0.08 nM [25]: 1.38 fold
Human NK cell IFNγ secretion (fold over background), Ab 0.4 nM [25]: 0.69 fold
Human NK cell IFNγ secretion (fold over background), Ab 2 nM [25]: 1.27 fold
Human NK cell IFNγ secretion (fold over background), Ab 10 nM [25]: 1.39 fold
Human NK cell IFNγ secretion (fold over background), Ab 50 nM [25]: 1.68 fold
Human NK cell IFNγ secretion (fold over background), Ab 250 nM [25]: 1.62 fold
Human NK cell IFNγ secretion, EC50 [25]: 5.53 nM
Human NK cell IFNγ secretion, maximal efficacy relative to h10G1 [25]: 61%
pEC50 (hu-CD96D1 D3-hFc (human)): 9.01
CD155-Fc binding (MedFI) [26]: 5040 MedFI
pKd [27]: 7.84
CD155-Fc binding (MedFI) [28]: 5040 MedFI
CD155-Fc binding (MedFI) [29]: 40300 MedFI
CD155-Fc binding (MedFI) [30]: 5050 MedFI
CD155-Fc binding (MedFI) [31]: 62600 MedFI
CD155-Fc binding (MedFI) [32]: 69300 MedFI
CD155-Fc binding (MedFI) [33]: 64100 MedFI
pKd (hu-CD96 Fc (human)): 7.85
koff (hu-CD96 Fc (human)): 0.0012 s⁻¹
kon (hu-CD96 Fc (human)): 84400 M⁻¹ s⁻¹
pIC50 [34]: 9.04
pIC50 [35]: 8.59

hu-IgG1 control antibody
% positive [4]: 0.64%
% positive [5]: 4.61%
% positive [6]: 2.36%
% positive [7]: 3.1%
% positive [9]: 1.15%
% positive [10]: 4.67%
% positive [12]: 0.59%
% positive [13]: 4.04%
% positive [15]: 0.31%
% positive [16]: 3.98%
% positive [18]: 0.57%
% positive [19]: 5.5%
% positive [20]: 0.41%
% positive [21]: 5.29%
CD155-Fc binding (MedFI) [26]: 63100 MedFI
CD155-Fc binding (MedFI) [28]: 57300 MedFI
CD155-Fc binding (MedFI) [29]: 58300 MedFI
CD155-Fc binding (MedFI) [30]: 51700 MedFI
CD155-Fc binding (MedFI) [31]: 59400 MedFI
CD155-Fc binding (MedFI) [32]: 52800 MedFI
CD155-Fc binding (MedFI) [33]: 47700 MedFI

muIgG1 control antibody
% positive [36]: 0.49%
% positive [1]: 0.27%
% positive [37]: 0.48%
% positive [2]: 0.18%
% positive [38]: 0.75%
% positive [3]: 0.42%
% positive [4]: 1.77%
% positive [5]: 2.05%
% positive [6]: 1.9%
% positive [7]: 2.34%
% positive [39]: 0.49%
% positive [8]: 0.14%
% positive [9]: 0.95%
% positive [10]: 1.42%
% positive [40]: 0.41%
% positive [11]: 0.11%
% positive [12]: 1.07%
% positive [13]: 1.5%
% positive [41]: 0.41%
% positive [14]: 0.06%
% positive [15]: 0.83%
% positive [16]: 1.09%
% positive [17]: 0.03%
% positive [18]: 1%
% positive [19]: 1.48%
% positive [20]: 0.76%
% positive [21]: 0.98%
CD155-Fc binding (MedFI) [26]: 71600 MedFI
CD155-Fc binding (MedFI) [28]: 71600 MedFI
CD155-Fc binding (MedFI) [29]: 66600 MedFI
CD155-Fc binding (MedFI) [30]: 76000 MedFI
CD155-Fc binding (MedFI) [31]: 64400 MedFI
CD155-Fc binding (MedFI) [32]: 65400 MedFI
CD155-Fc binding (MedFI) [33]: 64300 MedFI

anti-hCD226 antibody DX11
pKd [42]: 10.70
pKd (hu-CD226 His tag (human)): 8.16
